According to article PMC9268357 (Science (New York, N.y.), 2021):

Legend:
[1] = molecular target: T1, prefusion-stabilized SARS-CoV S ectodomain trimer (SARS-CoV, isolate , UniProt P59594, stabilised); assay: cell-based or functional assay
[2] = molecular target: T2, prefusion-stabilized MERS-CoV S ectodomain trimer (MERS-CoV, isolate not shown; stand-in …, UniProt K9N5Q8, stabilised); assay: cell-based or functional assay
[3] = molecular target: T1, prefusion-stabilized SARS-CoV S …; assay: SPR; S2P6 Fab fragment and S glycoproteins (fig. S1, G and H); details: both partners purified
[4] = molecular target: T2, prefusion-stabilized MERS-CoV S …; assay: as above; details: both partners purified

B1: S2P6 monoclonal antibody (antibody, V domains shown)
VH: EVQLVQSGAEVKKPGASVKVSCKASGYTFTSQYMHWVRQAPGQGLEWIGIINPSGVHTSYAQKFQGRVTLTRDTSTSTLYMELSSLRSEDTAVYYCARGSPKGAFDYWGQGTLVTVSS
VL: not shown
notes: also called S2P6 mAb; S2P6 IgG; copies: 2 + 2
With B1 the “neutralization of VSV pseudotyped with SARS-CoV S, IC50” value [1] was 2.4 µg/mL and the “neutralization of VSV pseudotyped with MERS-CoV S, IC50” value [2] was 17.1 µg/mL.

B2: S2P6 Fab fragment (Fab, V domains shown)
VH: B1 VH
VL: not shown
B2 gave a Kd [3] of 7 nM and a Kd [4] of 12 nM.
